Measured values: patent US9586990B2, “Enzymes for transforming ergopeptines and method therefor” (Erber Aktiengesellschaft, priority 2012, dated 2017)

Key:
[1] = activity (detoxification) assay of the purified his-tagged enzyme with ergotamine; type: biochemical; settings: FIG. 1; 50 mM sodium phosphate buffer pH 7.0, 25° C.; enzyme 0.079 μg/ml, ergotamine 5 mg/kg
Experimental: (§1) The gene with the sequence ID No. 2, which codes for an α/β-hydrolase comprising a catalytic triad of S94-D234-H270, was cloned into the expression vector pET28a(+) by applying standard methods, transformed and expressed in E. coli. Following the expression in E. coli BL21(DE3), the his-tagged enzyme was purified by affinity chromatography. The enzyme concentration was determined using a Pierce BSA Protein Assay Kit, and the enzyme was used in activity assays. The assays were carried out in 50 mM sodium phosphate buffer (pH 7.0) at 25° C.
In the context of the detoxification assays, enzyme concentrations of 0.079 μg/ml and ergotamine concentrations of 5 mg/kg were used.
The samples were analyzed using HPLC-FLD or HPLC-MS/MS, each by analytically determining the respective concentration of the sum of the respective epimers. Simultaneously with the determination of the ergopeptine concentration during the enzymatic reaction, the formation of the ergo hydroxy acid (metabolite 1) and of the ergoproline cyclodipeptide (metabolite 2) was observed. During the continued reaction course, the conversion of metabolite 1 to ergine was detected.

[2] = temperature stability of the enzyme; type: biochemical
Experimental: In order to determine the temperature stability, the enzyme was incubated for 1 h at varying temperatures ranging from 10° C. to 60° C. After this, the enzyme solutions were incubated at concentrations of 0.1 μg/ml in Teorell-Stenhagen universal buffer (pH 7.0) with 0.1 mg/ml BSA and 5 mg/kg ergotamine at 25° C.

[3] = degradation assay in the in-vitro rumen model; settings: 1 μg/ml enzyme, 5 mg/kg ergotamine, rumen juice diluted 1:1, 39° C., HPLC/ESI-MS/MS
[4] = temperature range of the activity; type: biochemical; settings: 0.1 μg/ml enzyme, 5 mg/kg ergotamine, Teorell-Stenhagen universal buffer pH 9.0
[5] = assay for reacting the six ergopeptines and their isomeric forms; type: biochemical; settings: 1.58 μg/ml enzyme, concentrations equimolar to 10 mg/kg ergotamine; pH 7.0, 25° C.; FIG. 2
Experimental: as §1
A further assay for reacting the six ergopeptines, namely ergotamine, ergovaline, ergocomine, ergocristine, ergocryptine or ergosine, and their respective isomeric forms, namely ergotaminine, ergovalinine, ergocominine, ergocristinine, ergocryptinine and ergosinine, used 1.58 μg/ml of the enzyme with sequence ID No. 1 and 10 mg/kg ergotamine, or the equimolar (summation) concentrations of the remaining ergopeptines or their epimers.
The samples were analyzed using HPLC-FLD or HPLC-MS/MS, each by analytically determining the respective concentration of the sum of the respective epimers. […] During the continued reaction course, the conversion of metabolite 1 to ergine was detected.

[6] = pH stability of the enzyme; type: biochemical; settings: 1 h at 25° C. at pH 2 to pH 12; then assay at pH 7.0, 25° C.
Experimental: In order to determine the pH stability, the enzyme was incubated for 1 h at 25° C. at varying pH values ranging from pH 2 to pH 12. After this, the enzyme solutions in concentrations of 0.1 μg/ml were incubated with 0.1 mg/ml BSA and 5 mg/kg ergotamine in Teorell-Stenhagen universal buffer (pH 7.0) at 25° C.

B1: enzyme with the sequence ID No. 1: α/β-hydrolase with catalytic triad S94-D234-H270, coded by gene sequence ID No. 2, cleaving ergopeptines in the cyclol ring (protein, listed as Rhodococcus erythropolis)
chain: MPLVVLSDGTRIHVETSGNGVPALVPCVGSSVPFERTFGEELKTDIQYNFVEVRGTSRSDGEPSEVASLDRISDDLEEVRQLLGLDKVIALGQSRNGMMAAHYAQKYPNSVLHLVTIGTPASLSMIKNEEYWNAFADDERKRLRAENDAAMEREGLLDLDNLNTAEKIVRLFDLEGAVYFYDPTTLMNDWWDASLLSRTFEVVMASNMGWADFDLVQTLQNSDVPAFVTFGKYDFMVSPLPKPGNPVDGKAGLFEDIPGVRVEVFEKSGHFPYWEQEQEFARRYRDWVATLPESAVRAAEAMTPNGIRQ
- time to almost complete degradation of ergotamine to ergine [1]: ≤ 4 h
- temperature up to which the enzyme is stable ([2]; 1 h preincubation at 10° C. to 60° C., then 0.1 μg/ml enzyme, pH 7.0, 0.1 mg/ml BSA, 5 mg/kg ergotamine, 25° C.): ≤ 30 °C
- activity after incubation at 40° C. ([2]; 1 h preincubation at 40° C., then assay at pH 7.0, 25° C.): still displaying some activity
- conversion of ergotamine in the rumen model [3]: completely converted into ergine and lysergic acid
- temperature optimum of activity, based on the starting speed [4]: 35 °C
- reaction courses of all other ergopeptines and their isomeric forms relative to ergotamine [5]: comparable
- activity outside the pH 6 to pH 9 range after preincubation [6]: strongly decreasing activity
